These results are taken from US20230235058A1 (OXFORD UNIVERSITY INNOVATION, published 2023).

Changes are numbered by the printed parent chain.

Assay [1] concerns the target T1, human FcγR1A (human, UniProt P12314 16-288, biotinylated).
T1 construct: bought; also called CD64A
The assay is described as follows: SPR 37C, kinetic; hIgG1 K322A Fc variant.
Method: For the high affinity FcR interactions (FcγR1A, and also FcRn assessed at pH6.0) the binding was assessed in a kinetic analysis with antibody as analyte. […] Reference flow cell 1 was left empty in all channels. Purified antibody was then injected at a single concentration and on/off rates calculated by curve fitting on BiaEvaluation software.

The target of assay [2] is T2, human FcγR2A 131H (human, UniProt P12318 34-217).
T2 construct: extracellular domain
T2 sequence (looked up): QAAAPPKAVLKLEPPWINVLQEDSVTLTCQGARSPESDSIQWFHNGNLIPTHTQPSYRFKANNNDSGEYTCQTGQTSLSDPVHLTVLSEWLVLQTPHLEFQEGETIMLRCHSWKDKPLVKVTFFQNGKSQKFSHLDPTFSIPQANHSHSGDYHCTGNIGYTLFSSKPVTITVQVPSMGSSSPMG
The assay is described as follows: SPR 37C, steady state; hIgG1 K322A Fc variant.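 Further: fc variants captured on chip-bound human BTLA ectodomain, recombinant FcγR ectodomains injected as analyte at varied concentrations, double-referenced equilibrium binding fitted to Langmuir model.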
Method: (§1) For the low affinity FcγRs (FcγR2A, FcγR2B, FcγR3A and FcγR3B) the interactions were assessed by surface plasmon resonance with the recombinantly expressed FcRs (extracellular domains only) as analyte. Briefly, recombinant human BTLA extracellular domain (BTLA^K31-R151) was covalently immobilised to both flow cells of all channels of a CMS Series S sensor chip using the GE Healthcare Amine coupling kit. The 2.8.6 Fc variant to be assessed was then captured (approx. 500-1000 response units) in flow cell 2 of each channel. Steady state affinity analysis was then performed by injecting varying concentrations of FcR in multiple cycles and measuring equilibrium binding. Double referencing was used (subtracting the signal in the reference Fc1 and also subtracting the signal from a blank zero concentration injection). KDs were calculated from the Langmuir curves (plotting equilibrium binding against analyte concentration to determine the concentration required for half maximal binding).

In assay [3] the target is T3, human FcγR2B (human, UniProt P31994 43-217).
T3 construct: extracellular domain; also called hFcγR2B; CD32B
T3 sequence (looked up): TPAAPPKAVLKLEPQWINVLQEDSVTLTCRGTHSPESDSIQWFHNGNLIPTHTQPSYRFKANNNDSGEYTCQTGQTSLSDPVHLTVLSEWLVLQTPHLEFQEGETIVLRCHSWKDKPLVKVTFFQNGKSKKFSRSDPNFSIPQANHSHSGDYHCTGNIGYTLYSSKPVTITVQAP
The assay is described as follows: SPR 37C, steady state; hIgG1 K322A Fc variant.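 Further: fc variants captured on chip-bound human BTLA ectodomain, recombinant FcγR ectodomains injected as analyte at varied concentrations, double-referenced equilibrium binding fitted to Langmuir model.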
Method: as §1

For assay [4], the target named is T4, human FcγR3A 158F (human, UniProt P08637 17-208).
T4 construct: extracellular domain
T4 sequence (P08637 17-208): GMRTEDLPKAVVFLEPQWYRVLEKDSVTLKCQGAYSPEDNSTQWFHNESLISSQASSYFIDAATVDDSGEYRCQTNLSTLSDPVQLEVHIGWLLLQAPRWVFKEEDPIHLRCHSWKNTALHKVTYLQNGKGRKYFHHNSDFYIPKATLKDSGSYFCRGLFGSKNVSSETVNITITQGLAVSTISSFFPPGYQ
The assay is described as follows: SPR 37C, steady state; hIgG1 K322A Fc variant.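 Further: fc variants captured on chip-bound human BTLA ectodomain, recombinant FcγR ectodomains injected as analyte at varied concentrations, double-referenced equilibrium binding fitted to Langmuir model.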
Method: as §1

The target in assay [5] is T5, human FcγR3A 158V (human, UniProt P08637 17-208).
T5 construct: extracellular domain
T5 sequence (P08637 17-208 F176V): as the sequence (P08637 17-208) above, with F160V counted along it
The assay is described as follows: SPR 37C, steady state; hIgG1 K322A Fc variant.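 Further: fc variants captured on chip-bound human BTLA ectodomain, recombinant FcγR ectodomains injected as analyte at varied concentrations, double-referenced equilibrium binding fitted to Langmuir model.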
Method: as §1

Assay [6] deals with T6, human FcγR3B (human, UniProt O75015 17-200, limits assumed).
T6 construct: extracellular domain; also called CD16B
T6 sequence (O75015 17-200 limits assumed): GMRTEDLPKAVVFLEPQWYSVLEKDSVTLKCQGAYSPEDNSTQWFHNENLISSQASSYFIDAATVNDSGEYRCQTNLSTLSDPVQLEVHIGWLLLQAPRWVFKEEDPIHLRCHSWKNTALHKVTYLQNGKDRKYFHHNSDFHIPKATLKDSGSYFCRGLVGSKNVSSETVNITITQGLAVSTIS
The assay is described as follows: SPR 37C, steady state; hIgG1 K322A Fc variant.
Method: as §1

Assay [7] deals with T7, human FcRn (human, UniProt P55899 24-297; P61769 21-119, limits assumed, biotinylated).
T7 construct: bought; also called FcRn pH6
T7 sequence (P55899 24-297 limits assumed, chain 1 of 2): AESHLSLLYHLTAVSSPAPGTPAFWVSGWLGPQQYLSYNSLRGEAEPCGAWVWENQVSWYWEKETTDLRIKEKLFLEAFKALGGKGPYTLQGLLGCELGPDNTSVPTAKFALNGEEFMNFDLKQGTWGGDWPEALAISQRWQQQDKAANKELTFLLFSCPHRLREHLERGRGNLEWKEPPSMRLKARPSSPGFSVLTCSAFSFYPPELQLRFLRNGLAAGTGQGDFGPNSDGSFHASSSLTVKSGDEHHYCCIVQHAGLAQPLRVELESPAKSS
T7 sequence (P61769 21-119 limits assumed, chain 2 of 2): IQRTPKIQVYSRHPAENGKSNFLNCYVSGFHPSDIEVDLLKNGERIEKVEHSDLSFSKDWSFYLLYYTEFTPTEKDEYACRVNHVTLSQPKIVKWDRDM
The assay is described as follows: SPR, pH6.0.

Assay [8] addresses T4, human FcγR3A 158F. The assay is described as follows: SPR 37C, steady state.
Method: as §1
In assay [9] the target is T5, human FcγR3A 158V. The assay is described as follows: SPR 37C, steady state.
Method: as §1
For assay [10], the target named is T6, human FcγR3B. The assay is described as follows: SPR 37C, steady state.
Method: as §1
Assay [11] concerns the target T1, human FcγR1A. The assay is described as follows: SPR 37C, kinetic; hIgG1 N297A Fc variant.
Method: For the high affinity FcR interactions (FcγR1A, and also FcRn assessed at pH6.0) the binding was assessed in a kinetic analysis with antibody as analyte. […] Reference flow cell 1 was left empty in all channels. Purified antibody was then injected at a single concentration and on/off rates calculated by curve fitting on BiaEvaluation software. […] IgG Fc has two binding sites for FcRn so this assessment performed with FcRn immobilised at high density provides an avidity estimate for the interaction rather than a true KD.
Assay [12] deals with T8, human FcγR2A 131R (human, UniProt P12318 34-217).
T8 construct: extracellular domain
T8 sequence (looked up): T2 sequence (looked up) with H134R
The assay is described as follows: SPR 37C, steady state; hIgG1 N297A Fc variant.
Method: as §1

The target of assay [13] is T2, human FcγR2A 131H. The assay is described as follows: SPR 37C, steady state; hIgG1 N297A Fc variant.
Method: as §1
The target in assay [14] is T3, human FcγR2B. The assay is described as follows: SPR 37C, steady state; hIgG1 N297A Fc variant.
Method: as §1

T1 sequence (P12314 16-288): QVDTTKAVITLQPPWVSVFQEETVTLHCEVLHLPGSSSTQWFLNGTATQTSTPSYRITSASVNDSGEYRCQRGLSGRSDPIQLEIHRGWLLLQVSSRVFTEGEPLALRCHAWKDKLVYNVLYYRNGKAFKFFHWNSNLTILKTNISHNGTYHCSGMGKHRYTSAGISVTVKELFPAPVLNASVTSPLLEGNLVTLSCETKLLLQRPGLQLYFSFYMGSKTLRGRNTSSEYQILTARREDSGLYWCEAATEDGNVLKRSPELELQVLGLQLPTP

B1: humanised 2.8.6 hIgG1 K322A (antibody)
heavy: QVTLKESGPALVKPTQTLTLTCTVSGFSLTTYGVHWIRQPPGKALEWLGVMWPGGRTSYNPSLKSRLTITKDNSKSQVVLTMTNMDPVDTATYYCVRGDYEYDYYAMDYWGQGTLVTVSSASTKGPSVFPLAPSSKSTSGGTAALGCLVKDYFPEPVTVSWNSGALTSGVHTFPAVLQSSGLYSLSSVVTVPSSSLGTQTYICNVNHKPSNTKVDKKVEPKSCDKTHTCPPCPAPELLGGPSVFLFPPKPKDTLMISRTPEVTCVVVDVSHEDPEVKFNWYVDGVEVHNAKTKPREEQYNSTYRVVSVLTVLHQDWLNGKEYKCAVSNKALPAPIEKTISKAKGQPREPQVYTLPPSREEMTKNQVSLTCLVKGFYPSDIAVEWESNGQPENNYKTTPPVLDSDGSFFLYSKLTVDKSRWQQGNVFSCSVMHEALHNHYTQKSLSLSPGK
light: EIVLTQSPATLSLSPGERATLSCRASSSVSYMHWYQQKPGQAPRPLIYATSNRATGIPARFSGSGSGTDYTLTISSLEPEDFAVYYCHQWSSNPYTFGQGTKLEIKRTVAAPSVFIFPPSDEQLKSGTASVVCLLNNFYPREAKVQWKVDNALQSGNSQESVTEQDSKDSTYSLSSTLTLSKADYEKHKVYACEVTHQGLSSPVTKSFNRGEC
notes: Fc variant with the variable domains of humanised 2.8.6; copies: 2 + 2
With B1, the dissociation constant (Kd) in assay [1] is 0.0052 µM; in [2] it was 4.6 µM; in assay [3], 11 µM; in assay [4] it was 5.75 µM; in [5], 2.18 µM; in assay [6], 11.9 µM.

B2: humanised 2.8.6 hIgG1 N297A (antibody)
heavy: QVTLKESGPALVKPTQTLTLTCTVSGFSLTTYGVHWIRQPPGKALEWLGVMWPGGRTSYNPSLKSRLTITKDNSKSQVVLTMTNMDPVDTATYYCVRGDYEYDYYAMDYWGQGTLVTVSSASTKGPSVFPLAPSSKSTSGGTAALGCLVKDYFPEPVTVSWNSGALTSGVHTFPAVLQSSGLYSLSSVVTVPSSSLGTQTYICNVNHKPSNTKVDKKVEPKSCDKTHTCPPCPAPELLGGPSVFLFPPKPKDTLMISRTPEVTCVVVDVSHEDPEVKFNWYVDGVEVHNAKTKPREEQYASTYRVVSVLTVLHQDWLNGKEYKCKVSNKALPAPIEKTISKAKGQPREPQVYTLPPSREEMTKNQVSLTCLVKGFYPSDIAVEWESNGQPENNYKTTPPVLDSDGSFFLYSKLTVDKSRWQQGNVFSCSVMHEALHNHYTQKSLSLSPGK
light: B1 light
notes: as for B1
Turning to B2, the “avidity (FcRn pH6)” value in [7] was determined as 9.41 nM. Also, the binding result in assay [8], in [9] and in assay [10] was “no binding” throughout. The Kd worked out at 8.7 µM in assay [11], 447 µM in assay [12], 2150 µM in assay [13] and 1080 µM in [14].
